# T1: activated C1s (Homo sapiens, UniProt P09871)
# T1 construct: purchased Complement Technology
# T1 sequence (P09871 16-437 limits assumed): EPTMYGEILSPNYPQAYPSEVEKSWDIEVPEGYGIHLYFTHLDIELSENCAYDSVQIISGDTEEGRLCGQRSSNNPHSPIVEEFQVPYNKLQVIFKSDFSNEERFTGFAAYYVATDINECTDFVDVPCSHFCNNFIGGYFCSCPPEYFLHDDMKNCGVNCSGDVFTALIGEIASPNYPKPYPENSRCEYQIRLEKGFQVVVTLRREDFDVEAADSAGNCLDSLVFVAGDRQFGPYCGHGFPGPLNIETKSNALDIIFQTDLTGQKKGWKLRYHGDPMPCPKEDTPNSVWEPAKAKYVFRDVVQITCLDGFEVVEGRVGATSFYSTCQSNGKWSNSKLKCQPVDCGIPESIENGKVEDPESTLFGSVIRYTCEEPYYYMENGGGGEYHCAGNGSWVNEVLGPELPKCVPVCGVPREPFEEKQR
# T1 sequence (P09871 438-688 limits assumed): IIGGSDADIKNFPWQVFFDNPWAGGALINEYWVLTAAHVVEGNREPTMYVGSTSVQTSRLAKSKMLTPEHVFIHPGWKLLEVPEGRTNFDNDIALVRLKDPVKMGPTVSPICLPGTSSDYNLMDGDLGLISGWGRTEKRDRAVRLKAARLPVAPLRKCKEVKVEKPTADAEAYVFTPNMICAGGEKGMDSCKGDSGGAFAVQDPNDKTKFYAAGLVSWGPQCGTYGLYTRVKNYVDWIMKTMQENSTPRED
# B1: C1s standard: humanized or recombinant C1s standard; activated C1s used as calibrator (protein)
# chain 1: EPTMYGEILSPNYPQAYPSEVEKSWDIEVPEGYGIHLYFTHLDIELSENCAYDSVQIISGDTEEGRLCGQRSSNNPHSPIVEEFQVPYNKLQVIFKSDFSNEERFTGFAAYYVATDINECTDFVDVPCSHFCNNFIGGYFCSCPPEYFLHDDMKNCGVNCSGDVFTALIGEIASPNYPKPYPENSRCEYQIRLEKGFQVVVTLRREDFDVEAADSAGNCLDSLVFVAGDRQFGPYCGHGFPGPLNIETKSNALDIIFQTDLTGQKKGWKLRYHGDPMPCPKEDTPNSVWEPAKAKYVFRDVVQITCLDGFEVVEGRVGATSFYSTCQSNGKWSNSKLKCQPVDCGIPESIENGKVEDPESTLFGSVIRYTCEEPYYYMENGGGGEYHCAGNGSWVNEVLGPELPKCVPVCGVPREPFEEKQR
# chain 2: IIGGSDADIKNFPWQVFFDNPWAGGALINEYWVLTAAHVVEGNREPTMYVGSTSVQTSRLAKSKMLTPEHVFIHPGWKLLEVPEGRTNFDNDIALVRLKDPVKMGPTVSPICLPGTSSDYNLMDGDLGLISGWGRTEKRDRAVRLKAARLPVAPLRKCKEVKVEKPTADAEAYVFTPNMICAGGEKGMDSCKGDSGGAFAVQDPNDKTKFYAAGLVSWGPQCGTYGLYTRVKNYVDWIMKTMQENSTPRED
# Biological target: T1, activated C1s
# Experiment: N-carboxybenzyloxythiobenzyl ester/DTNB colorimetric detection of enzymatic activity of C1s standard
# Type: biochemical
# Details: for Enzymatic activity of C1s standards: conversion from Example 4
# Description: In the present disclosure, the enzymatic activity of activated C1s was detected in a sample to be tested. Therefore, it was necessary to determine the enzymatic activity of a C1s standard used in the experiment and to prepare a standard curve for later C1s enzymatic activity. The enzymatic activity of the activated C1s was detected by an N-carboxybenzyloxythiobenzyl ester/5,5′-dithiobis(2-nitrobenzoic acid) colorimetric method. The method specifically included the steps as follows: • (1) Materials: 1) Analysis buffer: 50 mM Tris, 250 mM NaCl, pH=8.0; • 2) substrate: N-carboxybenzyloxythiobenzyl ester (ZKSBzl), dissolved in 10 mM dimethyl sulfoxide; and • 3) 5,5′-dithiobis(2-nitrobenzoic acid) (DTNB), dissolved in 10 mM dimethyl sulfoxide. • (2) Detection of C1s activity units: • 1. The C1s standard was diluted to 0.2 μg/mL with an assay buffer. • 2. The DNTB was added to the assay buffer at a final concentration of 200 μM, and a substrate was added to the assay buffer at a final concentration of 1,000 μM. • 3. 50 μL of 0.2 ng/μL C1s was added into a plate. • 4. 50 μL of a mixture including 1,000 μM substrate/200 μM DTNB was added to the wells to start a reaction. • 5. An absorbance at 5 min was read at 405 nm with a microplate reader. • (3) Calculation of activated C1s:
# In subsequent experiments, the enzymatic activity of the C1s standard was defined in this way.
molecule,measurement,setting,value
B1,enzymatic activity,1 μg/mL C1s standard,0.91 pmol/min/µg
same,Enzymatic activity of C1s standards,6.25 μg/mL,5.7 pmol/min/µg
same,Enzymatic activity of C1s standards,12.5 μg/mL,11.4 pmol/min/µg
same,Enzymatic activity of C1s standards,25 μg/mL,22.8 pmol/min/µg
same,Enzymatic activity of C1s standards,50 μg/mL,45.5 pmol/min/µg
same,Enzymatic activity of C1s standards,100 μg/mL,91 pmol/min/µg
same,Enzymatic activity of C1s standards,200 μg/mL,182 pmol/min/µg
